Measured values as given in the DeepSol protein solubility set.

experiment: soluble on expression in E. coli; label from the status in PepcDB or PDB records

Sequence | soluble on expression in E. coli
MPFTLGQRWISDTESELGLGTVVAVDARTVTLLFPSTGENRLYARSDSPVTRVMFNPGDTITSHDGWQMQVEEVKEENGLLTYIGTRLDTEESGVALREVFLDSKLVFSKPQDRLFAGQIDRMDRFALRYRARKYSSEQFRMPYSGLRGQRTSLIPHQLNIAHDVGRRHAPRVLLADEVGLGKTIEAGMILHQQLLSGAAERVLIIVPETLQHQWLVEMLRRFNLRFALFDDERYAEAQHDAYNPFDTEQLVICSLDFARRSKQRLEHLCEAEWDLLVVDEAHHLVWSEDAPSREYQAIEQLAEHVPGVLLLTATPEQLGMESHFARLRLLDPNRFHDFAQFVEEQKNYRPVADAVAMLLAGNKLSNDELNMLGEMIGEQDIEPLLQAANSDSEDAQSARQELVSMLMDRHGTSRVLFRNTRNGVKGFPKRELHTIKLPLPTQYQTAIKVSGIMGARKSAEDRARDMLYPERIYQEFEGDNATWWNFDPRVEWLMGYLTSHRSQKVLVICAKAATALQLEQVLREREGIRAAVFHEGMSIIERDRAAAWFAEEDTGAQVLLCSEIGSEGRNFQFASHMVMFDLPFNPDLLEQRIGRLDRIGQAHDIQIHVPYLEKTAQSVLVRWYHEGLDAFEHTCPTGRTIYDSVYNDLINYLASPDQTEGFDDLIKNCREQHEALKAQLEQGRDRLLEIHSNGGEKAQALAESIEEQDDDTNLIAFAMNLFDIIGINQDDRGDNMIVLTPSDHMLVPDFPGLSEDGITITFDREVALAREDAQFITWEHPLIRNGLDLILSGDTGSSTISLLKNKALPVGTLLVELIYVVEAQAPKQLQLNRFLPPTPVRMLLDKNGNNLAAQVEFETFNRQLNAVNRHTGSKLVNAVQQDVHAILQLGEAQIEKSARALIDAARNEADEKLSAELSRLEALRAVNPNIRDDELTAIESNRQQVMESLDQAGWRLDALRLIVVTHQ | soluble
VKKIKDIGEVAGGSTPSTKIKEYWGGDIPWITPKDLANYEYIYISRGERNITEKAVKECSLRIFPKGTILLTSRAPIGYVAIAKNPLTTNQGFRNIIPKDGVVSEYLYYLFKTKTMSEYLKDISGGSTFPELKGSTLKEVEIPYPSPEEQQKIATVLSYFDD | not soluble
MARIRVQFICQNCGTVHSRWAGKCNSCGEWNSLIEENANSGIGTGPKQNVHKGRVVALTSLSGNIEDAPRIHSGIAELDRVTGGGFVRGSVLLVGGDPGIGKSTLLTQTAAALSRKGHHVIYVSGEEAVAQICLRAQRLDAANTKVKLAAETNVEDILATLSEHKNLDMVIIDSIQTLWSDAADSAPGTVTQVRISAQAMIRFAKKTGAAVVLVGHVTKEGQIAGPRVVEHMVDAVLYFEGEGGHHYRILRTVKNRFGPTDEIGVFEMSDKGLREVINPSELFLGERNEKAPGAAVFAGMEGTRPILVEIQALVAPSSLGTPRRAVVGWDGNRLSMILAVLEAHCGVRFGQHDVYLNVAGGYRISEPAADLAVAAALVSSLTNIPLPTEYVYFGEISLSGAIRAVSHSAQRINEAQKLGFQGSVQPTTTTKMIKLPTFQQKTFSELSELIAALATGK | not soluble
MSLEGNLEELVYFYPPSTTPPAVGKYTQLISDLLQSVSIVDALPRGAAQAGILCQDTKEVLESENTVLEIAIPRQDNLVIVGDIHGQFADMLSNVLSIQLNLNNTKATDGRGSPSTEIYKFLFLGDYVDRGPQSLEVITLLFALKVEYPEHIFLLRGNHEEAQTSRLYGFFQECKSKLEGTGDRGPASVDITSSTWLQYNTVFCWLPLAAVVACPSGMFFCTHGGLSPHTLSVPLLRSLRRNEYGMVDDFEDTFYTPTSRGGDDMLEGPGAKARLVIDGLLWSDPEDQVSGCQMNNRGCGFIFGPDVTRSFLDRNYSYGFPPSKRQLIGEMKPGMQFILRGHQCAREGYMWCHGGLVLTLFSAPNYCGMHGNKGAVALLRGQVQAGKDRVELEFNVYDTVVRGGSDNLVACLSPFAFAHYFSGDSEGHHHHHH | soluble
GAMAPATCEKPKFLEYKTCVGDLTVVIAKALDEFKEFCIVNAANEHMTHGSGVAKAIADFCGLDFVEYCEDYVKKHGPQQRLVTPSFVKGIQCVNNVVGPRHGDNNLHEKLVAAYKNVLVDGVVNYVVPVLSLGIFGVDFKMSIDAMREAFEGCTIRVLLFSLSQEHIDYFDVTCK | soluble
MGSDKIHHHHHHMGDLTADVLVIGGGTAGFGAAVAAGRLGLDVVLLEAGTKVGGVMAFCPGMPWGAAYPQDESIGGLMQELTDRLMGMDPPMAEKRPCTLENFGPEIQYDHDAATTMMFEMLEEAGVRVFLGAVAFAPVMEGNRIAAVEFFDRRCPQRIAAKIVIDCSGDGDISAKAGVPFTLGDGQGNMMAVTLSFFMEGADWDRVFAENDPYFRRYAAKGIAEGRLHPHLAQLYLMKGFHPGTVFCNSVAIRGVDGTDPADVTRATQEGRRRCLQLAQFLRADVPGFEAAHMSQLGPTVGVRETRKLEGMYKVTGADLAAGTKFADGIVACDNPIDDVMRTSDQMTHDAMVERGGYYTIPFRSLLPKAVANLMFAGRILSADLVAFASVRGMPQCMAMGQATGTAAHLAIRDGAPVQQVDRAELVKLLSEQGVSRLLS | not soluble
MIRHRFSAEDFHRMAEAGILGEDDRVELIRGEVVELSPVGKRHMAALKRLMNALFPLQQAKKALLQVQDPLRLFPDTEPQPDLALLAYRDDFYRERVPEAKDALLVVEVAETSLDHDLQVKLPLYAQAGIPEVWVVDLVREKVHVFRKPQGEGYGEAQALEDGELSVLGLKVPVKEVLP | soluble
MAAMFSNTRSVASSSGHIVEFKAGRSRLEAGSGDTMRKVVAEPKKGLVFIKQSNDMLIHFCWKDRETGAVVDDLIIFPDDAEFKAVPGCPDGKVYMLKFKSGDMKLFWIQDSTPDVDKDLVKKVTDALNKPPTSRPAASRSAGSNANTDRQSAGGSLISSSDMNAPLGGIDQGQLMSLIQSLQGGNSDTLPISSVPRGEDASSEADCEPSTNAAEEGSSNPLSLNNPAIQQIFNNLGRSQKKEVAVSLATALSNETVAEVARNHAEELAPHLPTSDDPARELSETVRTPQFRQAADTLGHALQTGQLGPVVAQFGMDEATVGSANQGDIRGFAANLTKAEGGEDAAKTQNSDDDATREPEPKRNRPDNEDMDVD | not soluble
MAHHHHHHMSKKRKSYENDEDVYDNKRNKKNVASSIDSYGRKVWDKEYYQKKVDEKVENDEDELILKLLPDLKKKSKLEPPPPSERKLLEERKENLLLEKNLGKVQILTQKTPKNEQGGYYCKICDCVLKDSQTYLDHINGKNHNRMLGYSMKVKKVTLDDVKKRLSLLKDKKQNKTEDVEKDPYEDAKKNLKDMQEDEERRIQKRKEKKMLKKLEKEKKKNENENENNDEESDNMNMMFKEMGLPTSFV | soluble
MSLVACECLPSPGLEPEPCSRARSQAHVYLEQIRNRVALGVPDMTKRDYLVDAATQIRLALERDVSEDYEAAFNHYQNGVDVLLRGIHVDPNKERREAVKLKITKYLRRAEEIFNCHLQRPLSSGASPSAVQLVQDPATGGTFVVKSLPRCHMVSRERLTIIPHGVPYMTKLLRYFVSEDSIFLHLEHVQGGTLWSHLLSQAHSRHSGLSSGSTQERMKAQLNPHLNLLTPARLPSGHAPGQDRIALEPPRTSPNLLLAGEAPSTRPQREAEGEPTARTSTSGSSDLPKAPGGHLHLQARRAGQNSDAGPPRGLTWVPEGAGPVLGGCGRGMDQSCLSADGAGRGCGRATWSVREEQVKQWAAEMLVALEALHEQGVLCRDLHPGNLLLDQAGHIRLTYFGQWSEVEPQCCGEAVDNLYSAPEVGGISELTEACDWWSFGSLLYELLTGMALSQSHPSGIQAHTQLQLPEWLSRPAASLLTELLQFEPTRRLGMGEGGVSKLKSHPFFSTIQWSKLVGTSLETHLRTLIHWLSGPKPDCPG | soluble
MQKIALCITGASGVIYGIKLLQVLEELDFSVDLVISRNAKVVLKEEHSLTFEEVLKGLKNVRIHEENDFTSPLASGSRLVHYRGVYVVPCSTNTLSCIANGINKNLIHRVGEVALKERVPLVLLVREAPYNEIHLENMLKITRMGGVVVPASPAFYHKPQSIDDMINFVVGKLLDVLRIEHNLYKRWRG | soluble
MSLSTGDASGAPAVWSHGYTEASGVKNKLCVAALSVNNFCDNREALYGVFDGDRNVEVPYLLQCTMSDILAEELQKTKNEEEYMVNTFIVMQRKLGTAGQKLGGAAVLCHIKHDPVDPGGSFTLTSANVGKCQTVLCRNGKPLPLSRSYIMSCEEELKRIKQHKAIITEDGKVNGVTESTRILGYTFLHPSVVPRPHVQSVLLTPQDEFFILGSKGLWDSLSVEEAVEAVRNVPDALAAAKKLCTLAQSYGCHDSISAVVVQLSVTEDEGHHHHHH | soluble
MMPNEKITLKQLIDHCFDTTKTTIKQQIVFGAGKIENKNFNIVGTVEDTSFGVDESIEMARCILDIIKNNNTDPIVLLTDVAGQKLAVRDEWLGMYAYFAHLLKCLHLARQNGNKIITLIYNQAIGGSFIAFGMMADRIYALKNAKLAVMWLEGMSKVTKIDIDVLRKISETSPVFAPGVENFKKLGGLHQVLDLDEVSQQLLLTLQEPNISHDNRAELGKQYGGRKEAYDIIKAIENL | not soluble
MGSSHHHHHHSSGLVPRGSHMTATLGINGFGRIGRLVLRACMERNDITVVAINDPFMDVEYMAYLLKYDSVHGNFNGTVEVSGKDLCINGKVVKVFQAKDPAEIPWGASGAQIVCESTGVFTTEEKASLHLKGGAKKVIISAPPKDNVPMYVMGVNNTEYDPSKFNVISNASSTTNCLAPLAKIINDKFGIVEGLMTTVHSLTANQLTVDGPSKGGKDWRAGRCAGNNIIPASTGAAKAVGKVIPALNGKLTGMAIRVPTPDVSVVDLTCKLAKPASIEEIYQAVKEASNGPMKGIMGYTSDDVVSTDFIGCKYSSILDKNACIALNDSFVKLISWYDNESGYSNRLVDLAVYVASRGL | soluble
MSLGYKCVYMLSEIKEYLKNTVLFAFDFETSPRDKWRNDKSAALDAHKADITGISFSVSEGTAIYVPLKHRSGRNAENQAAIWDYLKLLFESKDVIKVAHNLAFESMFLYARGIVLQKPCYDTIAASQLTLKSKWEFRSLADSGLKTLAPALCKAEMTEFSTVTEGRFFDELNPQDEKTVRYACADSDYTLRLYHVFNQWFDRFLPKHRTIVEEVESPTSVYVGIMKYNGILVDKSAMLKKQAEAAEKIVSIRKEIAGIIGNVEIGANASTSAFKKYLFVDLGLPVMKTTAKHQEAADDETMILLKEWCATNRPELVRLFELVQEYRKWGKLKSTYIDGYLRFIDEDTGRIHPDLMPLGTETGRFASRNPNMQNCPQKDNDPIGVRKFIIAPAGKVLLSLDFSQIELRVGAFYCRDKRMLETYRTGGDIHAQTTSVIYRIPFEEAADKNAPHYKERRTIAKNCNFGVFYGLFPTGLQRTLKFKAGINPTLAECETIIQNLKSGYPGLAKWQDEVKKRAAVSCYSETWLGRRRYLLGIRSSDWGKKSFAERCALNTPIQGTAADILKLACGRIISGLPERLWLKPMLQIHDELVFELPEDKVDEAVVFIKECMETQPFPAFDVPIVAEASVGRNFGEMKEMEEGHHHHHH | soluble
GPGSMSSCTHPTSALFVDRQNGRTTCTICGDVVTTDQYELDPIFAQGGRQPASGGGLRGLAGSFRPATSYKGTHTGVIHSHSRPTIDKARREMLNISRQLEISEDTVERALGIYKVALNLNAVSGTRPSVLCACLYAACRRERTSHVIYDFSEINGEDPHTILSQMKYICHATHTEVPVIDPSCYVQRFAEQMDLGPQTTDVVVCALKVLRAMQDDWISCGRRPMGVCAAALLVACYVFGISRTPEQVCGMVRLTSNTIGKRLTEFAATPTARLENIDDYQPSHETLPPAFNDSSRKSTEEDVHASMRELSAIFYELVSEAKTSQPATPERCDKWRRFIMKHCELEGITPLEENLDLKGLPPAQQLHILGLPHTKPIPLEEVARSVKREEHRLLVKREASLQNGSDAGGSMSGARQGAVAGLLNNADVSSNGIPLYLLPDESLASSLAQASPAMGYADDGGMHSSSAAVGAASMDSPEQLRWMTDEYTRLLNSNAEVMHLRNDFDFADEDDANGAGGSSGGGAVAPPVSHPTQNQPFSCGLSQLRGGSPPPGTPAEEDPFGFFDRDDEGTRLALEEILYDRERRHALPWEFLVLPRVEEDDCTDILSYLVLDNEERLRRERIGVSLYGEKWKRGRARTDEEIQKLEEARASKRRRRSVIAEPAVDVPTAMERALRGRGAGTVNISQIGELLPGMLEFLEDEPQADWD | not soluble
